Consider 5 molecules from patent US8211429 (dated 2012).

A word on the IC50: it is the midpoint of a concentration-inhibition curve. Read a high IC50 as weaker potency in that assay. As a reminder, the Kd is the free concentration of one partner at which half of the binding sites on the other are occupied at equilibrium, for simple one-to-one binding. Read a high Kd as a looser complex.

The chains are these.
T1: murine NRP1 (mouse, UniProt P97333)
T1 chain: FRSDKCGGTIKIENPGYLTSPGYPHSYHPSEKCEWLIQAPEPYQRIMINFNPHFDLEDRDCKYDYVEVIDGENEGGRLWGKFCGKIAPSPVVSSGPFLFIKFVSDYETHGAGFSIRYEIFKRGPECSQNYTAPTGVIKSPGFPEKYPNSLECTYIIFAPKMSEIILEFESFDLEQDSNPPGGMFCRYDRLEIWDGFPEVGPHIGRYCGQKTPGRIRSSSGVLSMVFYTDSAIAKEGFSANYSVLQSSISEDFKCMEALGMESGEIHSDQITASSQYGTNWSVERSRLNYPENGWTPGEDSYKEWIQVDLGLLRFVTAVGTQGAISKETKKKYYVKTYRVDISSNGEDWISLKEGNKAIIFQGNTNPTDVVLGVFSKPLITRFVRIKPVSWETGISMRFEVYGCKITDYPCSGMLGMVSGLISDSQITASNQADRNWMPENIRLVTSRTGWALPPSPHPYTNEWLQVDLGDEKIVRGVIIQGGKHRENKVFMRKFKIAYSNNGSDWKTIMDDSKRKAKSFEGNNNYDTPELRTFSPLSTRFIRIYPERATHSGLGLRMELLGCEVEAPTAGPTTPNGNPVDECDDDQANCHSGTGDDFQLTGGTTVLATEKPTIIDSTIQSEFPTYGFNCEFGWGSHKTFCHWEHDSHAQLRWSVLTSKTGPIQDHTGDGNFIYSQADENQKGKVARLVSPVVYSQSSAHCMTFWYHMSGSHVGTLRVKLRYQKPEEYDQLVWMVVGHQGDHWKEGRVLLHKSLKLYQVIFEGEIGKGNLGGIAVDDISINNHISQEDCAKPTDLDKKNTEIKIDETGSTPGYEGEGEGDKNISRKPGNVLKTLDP

B1: YW107.4.52 (antibody, V domains shown)
VH: EVQLVESGGGLVQPGGSLRLSCAASGFTFSSYAMSWVRQAPGKGLEWVSQISPAGGYTNYADSVKGRFTISADTSKNTAYLQMNSLRAEDTAVYYCARELPYYRMSKVMDVWGQGTLVTVSS
VL: DIQMTQSPSSLSASVGDRVTITCRASQYFSSYLAWYQQKPGKAPKLLIYGASTLASGVPSRFSGSGSGTDFTLTISSLQPEDFATYYCQQYIRSPLTFGQGTKVEIKR
B2: YW107.4.76a (antibody, V domains shown)
VH: B1 VH
VL: B1 VL with F29I, T53R, L54R, I92L, L96H
B3: YW107.4.63 (antibody, V domains shown)
VH: B1 VH
VL: B1 VL with F29L, T53S, L54S, A55E, R93S, S94V
B4: YW107.4.38 (antibody, V domains shown)
VH: B1 VH
VL: B1 VL with F29L, T53S, L54R, I92L, L96I
B5: YW107.4.18 (antibody, V domains shown)
VH: B1 VH
VL: B1 VL with L54H, A55E

Substitutions are numbered along the chain they refer to.

The first test has as its target T2, human NRP1 (human, UniProt O14786). As to the kind of experiment: competition phage ELISA. (In general: An ELISA detects its analyte on a solid surface through an enzyme-linked reagent.)
B1 displayed an IC50 of 0.22 nM. In other words, the sub-nanomolar range.
The same measure, in the same setting: then B2, with 0.23 nM; and B3, with 0.15 nM; and B4, with 0.28 nM.

In the next test the target is T1, murine NRP1. In words: SPR 25C.
B1 returned a Kd of 1.2 nM.
On the same count and under the same terms, then B2, with 31 nM.
Same read-out and setting: then B3, with 0.8 nM; and B5, with 2.1 nM.
Still for that read-out and setting: next, B4: 3.2 nM.

A further test has as its target T1, murine NRP1. As to the kind of experiment: competition phage ELISA.
The molecule B1 yielded an IC50 of 1.1 nM.
On the same count and under the same terms, then B2, with 0.8 nM; and B3, with 0.8 nM.
On the same count and under the same terms, then B5, with 1.1 nM; and B4, with 1.4 nM.

For the next test, the target named is T2, human NRP1. In words: SPR 25C.
B1 yielded a Kd of 0.9 nM.
Molecule B2 gave a Kd of 1.4 nM.
The same measure, in the same setting: next, B3: 0.8 nM; B5: 1 nM.
On the same count and under the same terms, next, B4: 1.8 nM.
